Data: patent US20230174623A1

Molecular target: collagen within the matrix fraction of excised B16F10 tumors
Experiment: depletion of AF647-LAIR fluorescence from solution by the B16F10 tumor matrix fraction, at steady state

| Substance | decrease in solution concentration (LAIR depleted from the bath) | uptake into the tumor matrix (LAIR binding sites of a tumor) |
| --- | --- | --- |
| AF647-labeled LAIR | 20% |  |
| AF647-labeled LAIR (receptor) |  | 0.2 nmol |
